In doi:10.1101/2022.10.22.513346 (bioRxiv, 2022) one finds binding result and Kd data, which are given here for three molecules.

No end group written: not given here.

In experiment [1] the target is T1, N-terminal intrinsically disordered region (IDR) of ATG8 INTERACTING PROTEIN1 (ATI1) (Arabidopsis thaliana, UniProt O82775 1-180).
T1 sequence (looked up): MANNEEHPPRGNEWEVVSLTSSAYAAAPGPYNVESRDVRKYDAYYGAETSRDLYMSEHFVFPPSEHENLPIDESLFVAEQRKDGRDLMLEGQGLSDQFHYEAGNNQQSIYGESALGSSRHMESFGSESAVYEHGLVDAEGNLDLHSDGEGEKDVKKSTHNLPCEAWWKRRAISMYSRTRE
In words: NMR titration.

Experiment [2] has as its target T1, N-terminal intrinsically disordered …. In words: MST.

For the molecule SSSKAFKFPMRPGKGQSGKRC (also: 15N-labeled) [15N-labeled AGO1 N-coil peptide, wild type], the binding result in experiment [1] was “binds”.

B1: His6-SUMO-NcGN^AGO1 (N-coil plus globular N-domain of Arabidopsis AGO1), wild type N-coil (domain or fragment, Arabidopsis thaliana, UniProt O04379-2 172-335, looked up)
chain: SSSKAFKFPMRPGKGQSGKRCIVKANHFFAELPDKDLHHYDVTITPEVTSRGVNRAVMKQLVDNYRDSHLGSRLPAYDGRKSLYTAGPLPFNSKEFRINLLDEEVGAGGQRREREFKVVIKLVARADLHHLGMFLEGKQSDAPQEAAQVADIVSRELPTSRIRY
modifications: red maleimide fluorophore on Cys192 (Monolith NT Protein Labeling Kit Red - Maleimide)
For orientation: Kd means the concentration at which binding is half-saturated. A low value points to higher affinity. As to B1, the Kd in experiment [2] turned out to be 11 µM.

B2: His6-SUMO-NcGN^AGO1 K178E (domain or fragment, Arabidopsis thaliana, UniProt O04379-2 172-335, looked up)
chain: SSSKAFEFPMRPGKGQSGKRCIVKANHFFAELPDKDLHHYDVTITPEVTSRGVNRAVMKQLVDNYRDSHLGSRLPAYDGRKSLYTAGPLPFNSKEFRINLLDEEVGAGGQRREREFKVVIKLVARADLHHLGMFLEGKQSDAPQEAAQVADIVSRELPTSRIRY
modifications: red maleimide fluorophore on Cys192 (Monolith NT Protein Labeling Kit Red - Maleimide)
Take B2: the Kd in experiment [2] worked out at 47 µM.
